The data set concerns the target RNA polymerase II (12-subunit) (Sus scrofa (thymus), UniProt A0A8D1DPV6;A0A0B8RVL1;P19387;O15514;P19388;P61218;P62487;P52434;P60899;P62875;A0 …). The data set can be described thus: cryo-EM; alternative conformation, EMD-18376; FA: 5 mM HEPES-NaOH pH 7.25, 150 mM NaCl, 10 uM ZnCl2, 1 mM MgCl2, 1 mM DTT, 4 nM RNA, 30 C; EMSA: 20 mM HEPES-NaOH pH 7.25, 150 mM NaCl, 1 mM MgCl2, 5% glycerol, 40 ug/ml BSA, 1 mM DTT, 5 nM RNA, 30 C (gel 4 C). The conditions noted are these: protein: native; copies: 1;1;1;1;1;1;1;1;1;1;1;1; folded; canonical and alternative conformations. (In general: A gel shift assay detects complexes by their altered migration in electrophoresis.)

B1: minimal Alu-RA (structured_RNA)
RNA: GAGGCAGGAGAAUGGCGUGAACCCGGGAGGUGGACGAGAUCGCUCCAGCCUGGGUGACAGAGCGAGACUCUGUCUC
B1: the binding result is on record as “binds”.

The record behind these values is publication PMC11996674, “Mechanism of mammalian transcriptional repression by noncoding RNA”.
